Results from article PMC11952106.

Columns and labels:
[1] = biological target: act-EaCDCL^S (proteolytically activated short CDC-like protein of Elizabethkingia anophelis) (Elizabethkingia anophelis); test: cryo-EM structure; membrane-inserted pore on POPC liposomes; act-EaCDCL^L (3.95 uM) then act-EaCDCL^S (7.9 uM) at 37°C; focused refinement, C30 symmetry, 2.87 Å
[2] = biological target: act-EaCDCL^S (proteolytically activated short CDC-like protein of Elizabethkingia anophelis) (Elizabethkingia anophelis); test: cryo-EM structure; prepore-like oligomer stacked on the inserted pore; act-EaCDCL^L (3.95 uM) then act-EaCDCL^S (7.9 uM) on POPC liposomes at 37°C; focused refinement, C30 symmetry, 3.13 Å

**Q.** Which stoichiometry N [1] does the source give for “act-EaCDCL^S (proteolytically activated short CDC-like protein of Elizabethkingia anophelis) (domain or fragment)” here?
**A.** 30 subunits

**Q.** And the stoichiometry N [2]?
**A.** 30 subunits
